Laboratory results reported in the domain aggregation screens of Martell et al. (2025).

test: soluble fraction after stress (log2 fold change); higher = more stays soluble; pooled small domains, quantitative proteomics; conditions: stress: pH 4
Procedure, shortened: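 Small protein domains from pooled custom libraries were exposed to pH 4, then quantified with high-throughput quantitative proteomics. The fold change in how much of each domain remains soluble is read as aggregation propensity. It is given as log2, with higher values meaning more stayed soluble.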

First: HMVKRAYGEYVNVKLTDADLSKLKADFPADWQERIERLSTYMASTGKTYKNHLATIRNWARRDAERVSA
Second: HMKTMTTIRKGSRGDTVATLQRKLNLIADGIFGPITDEAVRDFQKSHGLAVDGIVGPKTWAALGVGS
The “soluble fraction (log2)” value of the first is lower: -0.292 for the first, 0.354 for the second.

Compared with “HMGGEPKALLFAGVETREMAEITQRLEAADIPYEIREDGGSIYVARSEVFNARMMLSADGLPS”, “HMEPPAPAPDIPYPSRVTVRREVDGWPHYYGTWTRTPPVLGYEGIWLVGVSLDGKVQFVPVDDVTIA” is lower in “soluble fraction (log2)” value: 0.233 for the first, -0.555 for the second.

“HMSEQIALQFAKAKQHHTGIALKGIEALELRYKGYTGKEIAALYHTSPKSVFSWISRAKQKLRQN” and “HMSFSSLSNDILSEIQKDNNITYDELSEKLQKDRATIYRNMKKLVENGLLKRVGGRKSGHWEIIE” cannot be ordered by “soluble fraction (log2)” value: at least 0.43 for the first, at least 0.43 for the second.

“HMVTVQEGETLSAIAARSGVSVKDLVRANEIRNPDSIQEGQVLFVP” and “HMQPETIEDATNLYLEAARATLQLIEQNNVIARDVKRLLEHLDNDMARIETLLAEMLSRRDHWLRHIH” are within 0.2 log units of each other in “soluble fraction (log2)” value: 0.165 for the first, 0.185 for the second.

Going from “HMLLNLSPIETQVLRLIQQDKKVTYESIGKELTIGQTKVYKVLGHLKELNVIERIGGRTYGHWHILL” to “HMGVRDIRIFERNNSFFVNAEIRGEAQLSVPITRTDYQLFKENKIDALSLVEKYYAEELNASNEMK”, the “soluble fraction (log2)” value rises from -0.599 to 0.155.

First: HMAQNILPGQKNAIKSLATSAGFSQQELDSYLSQNYGKTLNNLSQKEGASLISGLQDGSIKKP
Second: HMTDSSEILEAALKEAEDAAHEVLNGTFSVQLEPQKAYIRRLQHMLIDRMNLSSTSKGKEPYRSLLVYR
The “soluble fraction (log2)” value of the first is higher: 0.0359 for the first, -0.601 for the second.

First: HMNDNQNKQMLWELLKDNRAFDNFDNKDYKTIIHLFNETVNTIDHRTPNLDLIKKNKIFIQDIMQKLSNL
Second: HMRPYAYGTGRRKSSTARVHLIPNGSGSITINGRTLDEYFGLETLKLIVRQPLAATETAEKFDVEATVV
The “soluble fraction (log2)” value of the first is lower: -1.04 for the first, -0.509 for the second.

First: HMPDLSYVDEVLNRYKGHKGTLITVLQQVQAHKGYLEKEALERVARSMGVPTARIYGVVTFYAQFR
Second: HMSLEEQNGAKDRQVEAYELLLKAQRALDQEDTAGFQAAMKDLEPLSSQLDAQGQTLYHELLPFVS
The “soluble fraction (log2)” value of the first is higher: 0.099 for the first, -0.246 for the second.

First: HMYQPLYEQIKRMLTQSLIDGEWKAGEMIPSEMELAARFKVSQGTVRKAIDELVSENILMRRQGKGTFVH
Second: HMGRLEVDLVVPYDKYEAMNVIRAEGRILKEDHQGDGAHLKIQINETALWKLKRMLGEGYGQ
The “soluble fraction (log2)” value of the first is higher: 0.22 for the first, -0.255 for the second.

“HMQPDPAFVAWVDANPWYKENRTLRALVHDYAEEVKRQEPALIGTAFLDRVKQLVQSEHPELFD” and “HMEDMMKALLDVVRAQHTATEGSEERPFDINDIIDMALNITGRPEEPEEQQELSDTIQKLAESLAPDIFP” are within 0.2 log units of each other in “soluble fraction (log2)” value: -0.502 for the first, -0.596 for the second.

Going from “HMELEQLKSQLTGFLKANREQIFTAQNLADGLRMTDSQGYKQVVNALNASVRDGDVIDIKNGYQYNKN” to “HMDDPISSMVNRIRLAFGLSVTDLAAVLGVERPTIYSWLKDGSTPAPARLTRVRQVLSLADTW”, the “soluble fraction (log2)” value rises from -0.0153 to at least 0.43.

Compared with “HMIMTTKVSGIMFDKFNPSAILNINGMDYLVRSGDIINGYKILSIGQETVTVQYGANVYKASVG”, “HMIIDTELMTRVMKFGFSQADASDLVAQHSDDLLRTAISRVEARAESKGMTPLETPAGYFRWTLQDLVRNP” is lower in “soluble fraction (log2)” value: -0.603 for the first, -2.02 for the second.

Compared with “HMTVPAGIVLSSIRQDGDVLHIRGTAQSTERLNFFRNSFSASWGSPAQNGKRKADPVTGLVDFTISLK”, “HMDSLSLTELRIDSASPWIGNRISDFSPYAGELVIMIIRGEETIVPNGDTIILDKDLLVIYSS” is lower in “soluble fraction (log2)” value: -1.16 for the first, -1.39 for the second.

First: HMKPSKTVYTTANLNLRNGASMSAAVYTSVSRGTALATTGRTTSGWTQITHRGRTLWASSKYLTTTTPP
Second: HMNNLVTRREVEILGWIKEGKTTSDIAGILSLSPFTVKNHVQNILKKLGARSRSHAVAQAINLGLLH
The “soluble fraction (log2)” value of the first is higher: 0.155 for the first, -0.446 for the second.

Compared with “HMADNILPAQTDAIKALATENGFSNESLEKYLIENYGTTIYGLSRNQGIQIINLFQSENPPKP”, “HMFYNELMNFIVYKDSQKIGKIVNINDKLPQPVFEVLINDKKFMVPIHDDFIEKIDKEKKSIHIVIPDGLL” is lower in “soluble fraction (log2)” value: -0.207 for the first, -1.01 for the second.

Compared with “HMATESYYVLKADVPAKTLVTQEMVEEIKVSKGGAPVNSIKIDNIKEKGVYTSIPLLKGDVLSASNTG”, “HMEFEIGQEDSKKSVKQFLYNTLRLSHGQVTALKRQERGILLNGERVFVTALLQEGDRLSLLLE” is lower in “soluble fraction (log2)” value: -0.358 for the first, -1.24 for the second.

Going from “HMSRYAFEGNVVRLNQKDFDSWKALFTNIDLVSELTRLDIEFTHDKPKNWFSTASAKLNYQNKNAY” to “HMKMLSIQRREAIRALLLEKESITIAEVMEKFQISVETARRDFDALADEGFLNKVYGGATLKK”, the “soluble fraction (log2)” value falls from -0.903 to -1.24.

“HMRTMFGQRLRLARKRAGLSMQALADRVTPSVSAQAISKYEADQMMPSSSVLVGLGKALGVSLDFLVGGQ” and “HMSLREKNKARTRTAILNAARDLAKQGQWDAITTRQIADAAGVSYQTLYNYYPSKASILVEMLL” are within 0.2 log units of each other in “soluble fraction (log2)” value: -0.238 for the first, -0.219 for the second.

Going from “HMVSIGSQVAKRRRELRLTQQNLAEKMGVSFQAISSWEREEFLPDINKLQKLAAILNTKISYLLEE” to “HMLPTVSITGHIFIRSGSPLNRIFVGEKIYHVGDHIDRDWVIESIGIDTLTIRSGTLSTQLPL”, the “soluble fraction (log2)” value rises from -0.538 to 0.034.

Compared with “HMDPFAYEVKVTDLAAGSSEIRTVYTEQGSFNIPSGMSGNLKIQVRSASMYDEVEPSDWYTIGEEDIN”, “HMSASEKLFEARKNLNIVNVLGKNPVDRYDIVKILKHGDHYHIYDSKGNEGITYTNPKSLYPEAEFGEYQG” is higher in “soluble fraction (log2)” value: -0.461 for the first, -0.228 for the second.

First: HMFTYEETIGKSADVYLTIPALKAGKGKIIISVRGSVHELDAMTNNAEKISTGAVVKIVRIEHGNILLVEN
Second: HMKGSIFLDEATKMVDNSALKSLNTFLEEYARETNNQIFLISHQETPAEVTQIKLKKVGGETSYE
The “soluble fraction (log2)” value of the first is lower: -0.44 for the first, -0.0644 for the second.

“HMGDEHYDTISAFIKSVRGSDPDAALYWLAKMILAGEDPRFILRRLIVLSGEDIGLADPQGI” and “HMNELIGVEQLQDLREAIADHGFAEQRVLNWLYQATKGQVSRLEQLPLPMLTTLHKKLGQWADAEAAASSA” are within 0.2 log units of each other in “soluble fraction (log2)” value: -0.346 for the first, -0.499 for the second.

First: HMGTLPSLAPSGEKTVRLPNLAGWSLRETMEILQKGGLQLLPIGSGISFKQSPPPGTTLNEGDAVTVWF
Second: HMDTLKDFISGVSIVFENKYSVGDNVTIGDFRGDVIELGMKTTKIRAYTGEVLIIPNHLVEKVINH
The “soluble fraction (log2)” value of the first is higher: 0.103 for the first, -0.665 for the second.

“HMNSEERVLDTASKWLVKLDEGLDESEAQVLKVWLATPLHRDTFLEMVALWDKMSVLNELADIV” and “HMFYWTDLIGLDVINTADERLGKVVGLIETGANAVLRVMGDDQVERLLPFGSAVVLTVEKEAGQIRVEW” are within 0.2 log units of each other in “soluble fraction (log2)” value: -1.94 for the first, -2.05 for the second.

First: HMLDIQKKGENIAYIEGAGDVIPESLKQIGYHVVTIAPKDINAETLSRFDAVVVGIRAYNTVEDL
Second: HMQGIPVTVTAERANLRSGPGTSFDKLGQVVQGDVLTLLEVQNDWYKVKTAEGKTAFVAAYLVNSP
The “soluble fraction (log2)” value of the first is lower: -0.241 for the first, 0.0179 for the second.

First: HMTELPLTPRSKRILEMSALEARRLNHSYIGTEHLLMAIIRDGDGVAAKILESLGVNLPNFYTDTVRSIE
Second: HMDEFHLSERERQILNLLVLGHTYKHIASDLNIAYATVNKHVSNVYAKLRVQSASEAVALAIRKGL
The “soluble fraction (log2)” value of the first is higher: -0.0691 for the first, -0.58 for the second.

First: HMRIPANIAEDIKKLQKKEHHLHHHLGRDPFDDELAKELEWDTEQVSEIRQMIKNPELLEELLEAEREEE
Second: HMEGTEILVNIRKGMTKEEIASLLVSKGLVEDKNTFLVQTALYTSDRYPIQPGSYTLNTAQTPEEMLAVMT
The “soluble fraction (log2)” value of the first is lower: -1.2 for the first, -0.073 for the second.

Compared with “HMTEIILTARSGRHAVRHRLEGLGYTLTPEELERVHQRFLAVADAKKEVFDEDLHALMADERGT”, “HMTIGKIVNIIEGSYANVRSAPDQNSEPIGRAYPGDAFLVDPLGSSGDWVKVTYEGQSGFIFQAYISV” is lower in “soluble fraction (log2)” value: -0.467 for the first, -1.28 for the second.

“HMGEVEVPDLVGIEAIQAKTLLFNSDFLIKEFYDYDPTQPIGVVIRQAPEAGTTQTIGDSVTITINRA” and “HMHKYQVGETVYYTSPTFGRAAATGSYIVVKLLPSEGDDYQYRIKSSGEAFERVAKESQLDR” are within 0.2 log units of each other in “soluble fraction (log2)” value: -0.0721 for the first, 0.11 for the second.

Compared with “HMHSLLDDIPNVGEKRKRILLTHFQSLEEIKAATVEELERLPQINRKAAESIYTFFHSQPIR”, “HMQKPDIEVDFAEGDMVVVTGGAWKDTAGVITGINMQKQTVTINVELFGRETPVEISFTEIKKA” is lower in “soluble fraction (log2)” value: 0.139 for the first, -0.799 for the second.

“HMQSVPELDQQFKIAIENNDFIKLAQLKEQGYHPSKEVMQSLSNTTPNNTIIAVQKIFGLKA” and “HMREGRERRLSQLLSYLRTHHILTRSEYVKLTGLSPTAASSELKTFVTAGHIVRKGIASHSTYRLPH” are within 0.2 log units of each other in “soluble fraction (log2)” value: -0.185 for the first, 0.00826 for the second.

Compared with “HMLTAHEAILKELRKMLLTGVLSPGEAVRPEIIGESFGVSAVPVREALRILEGEGQVLNRPHKGYVVT”, “HMNIWNEWAFKKWIESDEYTGPDMTDFGHRTLVDEEFSKQYKEQMSLFKERVLTDDEFSAKYGDL” is lower in “soluble fraction (log2)” value: -0.482 for the first, -2.07 for the second.

Compared with “HMSERQTGTVKWFNNAKGFGFITMADRPDDIFVHFRAIQGDGYRSLNEGEEVEFSLVEGPKGLQAEEVTK”, “HMYPTPAAANRHFLDKWGHQEAYLGKVLNSRSRASEILNGKRPLSLSDLRTLRDNLGIPVDLLL” is higher in “soluble fraction (log2)” value: -1.09 for the first, -0.421 for the second.

Going from “HMSQESIMPNLVGSTEDEAKAIAVEYGFQLNVISRVNNSQYPAGVIIDQNVDEGVRIKAGYPVGVTIS” to “HMRMTPRQALDDLIREREETYAAVSRLLGRNTAYIQQYIKRGTPARLDQSDIAQLALHFDVPAKLLGGKE”, the “soluble fraction (log2)” value rises from -0.0416 to at least 0.43.

“HMKVYPIMEAIANNNIELVKLLLEYHADLNIKDSNGNTPLALAKETGAKEVEDLLLQWMKQHT” and “HMNEKAALIFNEWSDFVSKDDEANAQIKFDELITLYKKTGYTKIALLEVATKQASNGDIEGALAKYSLLID” are within 0.2 log units of each other in “soluble fraction (log2)” value: -0.834 for the first, -0.919 for the second.

Going from “HMKVEIVRVVKDIHIGDEITKDMVRTVEVGGYNLPDGVVKDTATVIGRFASADMVPGDYIISSKIADAP” to “HMFNPEQDPKQLTGRERAVADLIGLGANNAEIAIRLSMSERTVKAHLTSIFQQLNVRDRVQLALVMNQL”, the “soluble fraction (log2)” value falls from 0.0866 to -0.541.

“HMNVAELIEGHEAEIAEVLKEFSLLYLMRLADELGEMTKSSSGNGPFQVLKGLVYEEIARRG” and “HMFELDELDLVILKNLANGLSKKQIRVKLKKMDLRPNSESAIDKRVSKLFDEFGAKNSTELVAKLIREGL” are within 0.2 log units of each other in “soluble fraction (log2)” value: -0.416 for the first, -0.234 for the second.

Going from “HMSSIFTRIIAGEIPSYKVAEDENYYAFLDINPLTKGHTLVVPKMEVDYIFDLDDKTLAGMMLFAKKG” to “HMKHEFSEEWLDWIKSNIADGQNKNGLFKVLLNHGYAYDAVREVMQYEPTVPLDELVDPLRA”, the “soluble fraction (log2)” value falls from -0.455 to -0.953.
